Measurements reported in US11674967B2, “Method of identifying potential inhibitors of APO TNFα trimers” (UCB BIOPHARMA SRL, priority 2015, dated 2023).

Tests used:
TNFα [1] = molecular target: T1, TNFα (Homo sapiens, UniProt P01375); assay: SPR on Biacore 4000 against immobilised soluble TNFα; assay type: binding; conditions: up to 100 μM
Procedure: In another experiment, BIO8898 was tested against the immobilised soluble form of CD40L and the soluble form of TNFα by SPR on a Biacore 4000 machine.

Mouse TNFα = molecular target: T2, Mouse TNFα (Mus musculus, UniProt P06804); assay: BIAcore antibody binding with mouse TNFα +/- compound
T2 construct: made in house
T2 sequence (P06804 80-235 limits assumed): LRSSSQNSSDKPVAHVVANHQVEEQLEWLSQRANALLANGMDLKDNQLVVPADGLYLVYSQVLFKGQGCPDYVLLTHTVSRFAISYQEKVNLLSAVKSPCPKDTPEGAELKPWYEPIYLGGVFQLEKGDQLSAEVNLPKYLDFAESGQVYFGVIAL
Procedure: (§1) Surface plasmon resonance was performed at 25° C. using a BIAcore T200 (GE Healthcare). Anti-Mouse Fc (Jackson 115-006-071) was immobilised on a […] Sensor Chip (GE Healthcare) via amine coupling chemistry to a capture level of 6000 response units. HBS-EP buffer (10 mM HEPES pH 7.4, 0.15 M NaCl, 3 mM EDTA, 0.05% (v/v) surfactant P20—GE Healthcare)+1% DMSO was used as the running buffer.
(§2) The surface was regenerated at a flow-rate of 10 μl/min by a 60 s injection of 40 mM HCl×2 and a 30 s 5 mM NaOH. Double referenced background subtracted binding curves were analysed using the T200 Evaluation software (version 1.0) following standard procedures. Kinetic parameters were determined from the fitting algorithm.

[2] = molecular target: human TNFα complexed with compound (15) (Homo sapiens, UniProt P01375); assay: Size exclusion chromatography of Fab with human TNFα complexed with compound (15); assay type: binding; conditions: mouse Fab fragments
Chain of human TNFα complexed with compound (15) (P01375 77-233 limits assumed, one chain of several): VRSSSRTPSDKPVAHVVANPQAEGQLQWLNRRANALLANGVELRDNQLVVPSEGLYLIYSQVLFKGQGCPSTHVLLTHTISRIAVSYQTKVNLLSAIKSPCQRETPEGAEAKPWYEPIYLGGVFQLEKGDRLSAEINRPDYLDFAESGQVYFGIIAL

TNFα [3] = molecular target: T1, TNFα; assay: BIAcore antibody binding with human TNFα +/- compound; design: made in house
Procedure: as §1, §2

T1 sequence (P01375 77-233 limits assumed): as the sequence (P01375 77-233 limits assumed, one chain of several) above

Molecule: O=C(NCc1cccc(-c2ccccc2)c1)c1cc(-c2cc(C(=O)NC(C(=O)O)C3CCCCC3)nc(C(=O)N3CCCC3CN3CCCC3)c2)cc(C(=O)N2CCCC2CN2CCCC2)n1 (stereo not shown) [BIO8898]
- binding to TNFα (TNFα [1]): no binding was detected

B1: CA185_01979: conformation-selective antibody, light chain SEQ ID NO: 26, heavy chain SEQ ID NO: 27 (antibody)
heavy: EVHLVESGPGLVKPSQSLSLTCSVTGYSITNSYWDWIRKFPGNKMEWMGYINYSGSTGYNPSLKSRISISRDTSNNQFFLQLNSITTEDTATYYCARGTYGYNAYHFDYWGRGVMVTVSSAKTTPPSVYPLAPGSAAQTNSMVTLGCLVKGYFPEPVTVTWNSGSLSSGVHTFPAVLQSDLYTLSSSVTVPSSTWPSETVTCNVAHPASSTKVDKKIVPRDCGCKPCICTVPEVSSVFIFPPKPKDVLTITLTPKVTCVVVDISKDDPEVQFSWFVDDVEVHTAQTQPREEQFNSTFRSVSELPIMHQDWLNGKEFKCRVNSAAFPAPIEKTISKTKGRPKAPQVYTIPPPKEQMAKDKVSLTCMITDFFPEDITVEWQWNGQPAENYKNTQPIMDTDGSYFVYSKLNVQKSNWEAGNTFTCSVLHEGLHNHHTEKSLSHSPGK
light: DIQMTQSPASLSASLEEIVTITCQASQDIGNWLSWYQQKPGKSPHLLIYGTTSLADGVPSRFSGSRSGTQYSLKISGLQVADIGIYVCLQAYSTPFTFGSGTKLEIKRTDAAPTVSIFPPSSEQLTSGGASVVCFLNNFYPKDINVKWKIDGSERQNGVLNSWTDQDSKDSTYSMSSTLTLTKDEYERHNSYTCEATHKTSTSPIVKSFNRNEC
modifications: 1979 HC mIgG1 full; 1979 LC Kappa full
- Kd (Mouse TNFα; Mouse TNFα + compound (15)): 0.38 nM
- ka (Mouse TNFα; Mouse TNFα + compound (15)): 160000 M⁻¹ s⁻¹
- kd (Mouse TNFα; Mouse TNFα + compound (15)): 6.3e-05 s⁻¹
- ka (Mouse TNFα; Mouse TNFα + compound (39)): 190000 M⁻¹ s⁻¹
- kd (Mouse TNFα; Mouse TNFα + compound (39)): 3.5e-05 s⁻¹
- Kd (Mouse TNFα; Mouse TNFα apo): 27 nM
- ka (Mouse TNFα; Mouse TNFα apo): 72000 M⁻¹ s⁻¹
- kd (Mouse TNFα; Mouse TNFα apo): 0.002 s⁻¹
- stoichiometry of Fab binding to trimer-compound complex [2]: 1 Fab:1 TNFα trimer
- ka (TNFα [3]; Human TNFα + compound (15)): 470000 M⁻¹ s⁻¹
- kd (TNFα [3]; Human TNFα + compound (15)): 1.6e-05 s⁻¹
- ka (TNFα [3]; Human TNFα + compound (39)): 570000 M⁻¹ s⁻¹
- kd (TNFα [3]; Human TNFα + compound (39)): 3.3e-05 s⁻¹
- ka (TNFα [3]; Human TNFα apo): 110000 M⁻¹ s⁻¹
- kd (TNFα [3]; Human TNFα apo): 0.00071 s⁻¹
